Measured values: publication PMC3285272 (Cell, 2012)

Target: T1, βδ-COP dimer with full-length β-COP L124E (R. norvegicus | B. taurus, UniProt P23514 1-953; P53619 1-511, L124E)
T1 sequence (looked up) 1: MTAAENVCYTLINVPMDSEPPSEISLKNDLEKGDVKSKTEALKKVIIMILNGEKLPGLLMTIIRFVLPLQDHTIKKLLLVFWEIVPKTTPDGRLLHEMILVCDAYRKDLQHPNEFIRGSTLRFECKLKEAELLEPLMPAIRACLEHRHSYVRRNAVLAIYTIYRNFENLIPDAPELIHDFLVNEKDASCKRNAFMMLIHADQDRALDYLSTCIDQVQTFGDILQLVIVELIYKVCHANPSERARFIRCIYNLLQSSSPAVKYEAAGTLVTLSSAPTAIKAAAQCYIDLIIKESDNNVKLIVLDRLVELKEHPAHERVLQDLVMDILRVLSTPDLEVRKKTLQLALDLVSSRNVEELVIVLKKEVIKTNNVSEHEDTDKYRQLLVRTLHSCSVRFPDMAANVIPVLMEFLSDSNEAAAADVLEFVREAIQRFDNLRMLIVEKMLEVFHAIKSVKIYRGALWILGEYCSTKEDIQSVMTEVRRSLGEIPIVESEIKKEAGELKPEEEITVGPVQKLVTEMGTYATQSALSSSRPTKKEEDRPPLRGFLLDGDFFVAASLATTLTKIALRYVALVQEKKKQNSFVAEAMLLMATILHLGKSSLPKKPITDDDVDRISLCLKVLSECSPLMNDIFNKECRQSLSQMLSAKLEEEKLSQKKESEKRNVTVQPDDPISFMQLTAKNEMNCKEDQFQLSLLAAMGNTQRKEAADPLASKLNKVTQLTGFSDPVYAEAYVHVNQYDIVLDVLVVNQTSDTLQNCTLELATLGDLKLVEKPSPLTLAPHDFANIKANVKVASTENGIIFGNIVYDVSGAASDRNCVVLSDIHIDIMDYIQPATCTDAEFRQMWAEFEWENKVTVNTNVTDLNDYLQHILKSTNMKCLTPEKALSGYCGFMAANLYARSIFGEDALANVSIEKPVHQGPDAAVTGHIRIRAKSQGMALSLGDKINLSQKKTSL
T1 sequence (looked up) 2: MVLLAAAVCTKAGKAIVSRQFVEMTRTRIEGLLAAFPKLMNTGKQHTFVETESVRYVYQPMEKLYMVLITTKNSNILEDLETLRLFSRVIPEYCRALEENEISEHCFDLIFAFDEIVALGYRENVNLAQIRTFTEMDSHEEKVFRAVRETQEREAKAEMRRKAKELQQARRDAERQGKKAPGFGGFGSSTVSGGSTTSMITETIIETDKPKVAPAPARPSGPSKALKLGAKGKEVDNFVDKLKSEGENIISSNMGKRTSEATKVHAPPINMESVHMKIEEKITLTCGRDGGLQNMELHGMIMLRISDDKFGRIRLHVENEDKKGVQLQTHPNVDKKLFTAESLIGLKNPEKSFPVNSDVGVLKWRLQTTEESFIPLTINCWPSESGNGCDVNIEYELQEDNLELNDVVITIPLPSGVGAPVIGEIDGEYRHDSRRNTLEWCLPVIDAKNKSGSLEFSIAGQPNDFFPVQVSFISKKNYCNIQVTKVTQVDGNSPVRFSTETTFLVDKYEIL
Experiment: pull-down

- binding result: binds
B1: S. cerevisiae Arf1 (residues 18–181) with a C-terminal GST tag (domain or fragment, UniProt P11076 18-181, looked up)
chain: MRILMVGLDGAGKTTVLYKLKLGEVITTIPTIGFNVETVQYKNISFTVWDVGGQDRIRSLWRHYYRNTEGVIFVVDSNDRSRIGEAREVMQRMLNEDELRNAAWLVFANKQDLPEAMSAAEITEKLGLHSIRNRPWFIQATCATSGEGLYEGLEWLSNSLKNST
